The target in data set [1] is Halo 635-ΔZnF LIG3α. Briefly: single-molecule fluorescence colocalisation on tethered DNA (SMADNE, LUMICKS C-trap); nuclear extract diluted 1:10 in 20mM HEPES pH 7.5, 150mM NaCl, 1mM DTT, 5% glycerol, 0.5mg/ml BSA, 1mM trolox; nicked λ DNA with eight observable ligatable nicks tethered between streptavidin beads, 10 pN tension; kymographs at 10 frames per second; proteins at 0.1–2 nM.

For data set [2], the target named is N-terminal tagged Halo635 LIG3α (DNA Ligase 3α, nuclear, wild type). The description is as above.
Data set [3] has as its target Halo 635-K421A LIG3α (catalytically dead). The description is as above.
The target in data set [4] is N-terminal tagged Halo635 LIG3α (DNA Ligase 3α, nuclear, wild type). Briefly: single-molecule fluorescence colocalisation on tethered DNA (SMADNE, LUMICKS C-trap); as a1 but on calf-intestinal alkaline phosphatase (CIP) treated nicked λ DNA with 8 observable non-ligatable (5'OH) nick sites, 10 pN tension.
Data set [5] has as its target Cy3-labeled human histone nucleosome core particle reconstituted on the Widom 601 sequence (human). Briefly: single-molecule fluorescence imaging on a tethered nucleosome (SMADNE, LUMICKS C-trap); Cy3-labeled undamaged 601 NCP ligated into 6 kb biotinylated DNA handles and tethered between optically trapped streptavidin beads, 4–5 pN tension; tagged proteins from nuclear extract; lifetimes from …; KD from koff, apparent kon and protein concentration.

Data set [6] deals with T1, LIG3α ZnF-BRCT internal_change, P49916-3.
T1 sequence: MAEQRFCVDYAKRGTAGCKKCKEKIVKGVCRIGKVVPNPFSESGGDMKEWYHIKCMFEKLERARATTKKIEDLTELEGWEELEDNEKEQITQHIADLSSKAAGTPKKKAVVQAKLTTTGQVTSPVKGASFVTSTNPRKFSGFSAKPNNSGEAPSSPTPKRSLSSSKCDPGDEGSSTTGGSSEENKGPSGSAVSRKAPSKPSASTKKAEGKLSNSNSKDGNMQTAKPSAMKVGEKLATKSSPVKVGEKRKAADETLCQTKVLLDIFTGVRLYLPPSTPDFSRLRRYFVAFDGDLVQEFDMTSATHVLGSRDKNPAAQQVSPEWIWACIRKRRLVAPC
Briefly: single-molecule (SMADNE, optical tweezers). Conditions: 20 mM HEPES pH 7.5, 150 mM NaCl, 1 mM DTT, 5% glycerol, 0.5 mg/ml BSA, 1 mM trolox, 25 °C, nuclear extract diluted 1:10, 10 pN (λ DNA) or 4-5 pN (NCP).

Data set [7] deals with T2, LIG3α WT (nuclear), P49916-3.
T2 sequence: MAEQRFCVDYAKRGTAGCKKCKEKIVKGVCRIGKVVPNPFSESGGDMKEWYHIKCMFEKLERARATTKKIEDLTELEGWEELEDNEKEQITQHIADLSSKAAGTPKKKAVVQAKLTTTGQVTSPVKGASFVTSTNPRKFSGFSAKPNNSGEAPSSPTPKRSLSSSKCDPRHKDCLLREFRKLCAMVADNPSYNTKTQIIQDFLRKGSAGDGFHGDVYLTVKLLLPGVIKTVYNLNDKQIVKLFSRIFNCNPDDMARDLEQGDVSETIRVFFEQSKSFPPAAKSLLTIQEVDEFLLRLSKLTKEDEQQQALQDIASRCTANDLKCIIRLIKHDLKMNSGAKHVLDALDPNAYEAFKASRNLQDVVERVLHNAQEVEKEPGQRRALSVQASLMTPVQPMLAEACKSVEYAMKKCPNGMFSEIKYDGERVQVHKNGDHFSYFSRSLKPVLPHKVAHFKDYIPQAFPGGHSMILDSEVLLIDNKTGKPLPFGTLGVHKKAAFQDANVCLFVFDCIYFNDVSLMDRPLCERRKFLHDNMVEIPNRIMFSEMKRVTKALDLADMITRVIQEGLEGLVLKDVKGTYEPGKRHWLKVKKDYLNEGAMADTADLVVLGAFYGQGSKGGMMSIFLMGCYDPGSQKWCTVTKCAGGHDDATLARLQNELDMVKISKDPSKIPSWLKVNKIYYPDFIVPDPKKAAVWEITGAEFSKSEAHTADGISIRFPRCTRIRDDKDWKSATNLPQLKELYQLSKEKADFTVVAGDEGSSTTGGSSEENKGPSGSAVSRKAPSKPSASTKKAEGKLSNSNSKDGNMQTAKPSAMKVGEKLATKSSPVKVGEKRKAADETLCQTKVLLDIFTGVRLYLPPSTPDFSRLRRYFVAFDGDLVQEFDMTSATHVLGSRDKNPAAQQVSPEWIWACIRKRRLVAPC
Nature of the data set: single-molecule (SMADNE, optical tweezers). Conditions: 20 mM HEPES pH 7.5, 150 mM NaCl, 1 mM DTT, 5% glycerol, 0.5 mg/ml BSA, 1 mM trolox, 25 °C, nuclear extract diluted 1:10, 10 pN (λ DNA) or 4-5 pN (NCP).

Data set [8] has as its target XRCC1-YFP (UniProt P18887). Nature of the data set: single-molecule (SMADNE, optical tweezers). To be noted: 20 mM HEPES pH 7.5, 150 mM NaCl, 1 mM DTT, 5% glycerol, 0.5 mg/ml BSA, 1 mM trolox, 25 °C, nuclear extract diluted 1:10, 10 pN (λ DNA) or 4-5 pN (NCP).
In data set [9] the target is Cy3-labeled human histone nucleosome core particle reconstituted on the Widom 601 sequence (human). Briefly: single-molecule fluorescence imaging on a tethered nucleosome (SMADNE, LUMICKS C-trap); as a3 but 601 NCP with one non-ligatable nick (3'OH and 5'OH) at SHL -2.5, 5 pN tension.
The target is the same in data set [10]. Nature of the data set: single-molecule fluorescence imaging on a tethered nucleosome (SMADNE, LUMICKS C-trap); as a3 but 601 NCP with one non-ligatable nick (3'OH and 5'OH) at SHL 0, 5 pN tension.
Data set [11] shares this target. Briefly: single-molecule fluorescence imaging on a tethered nucleosome (SMADNE, LUMICKS C-trap); as a3 but 601 NCP with one non-ligatable nick (3'OH and 5'OH) at SHL -4.5, 5 pN tension.
In data set [12] the test system is LIG3α K421A. Briefly: single-molecule (SMADNE, optical tweezers). Conditions: nicks with 3'OH and 5'P; 20 mM HEPES pH 7.5, 150 mM NaCl, 1 mM DTT, 5% glycerol, 0.5 mg/ml BSA, 1 mM trolox, 25 °C; nuclear extract diluted 1:10; 10 pN (λ DNA) or 4-5 pN (NCP).
Data set [13] relates to T3, LIG3α ΔZnF, P49916-3.
T3 sequence: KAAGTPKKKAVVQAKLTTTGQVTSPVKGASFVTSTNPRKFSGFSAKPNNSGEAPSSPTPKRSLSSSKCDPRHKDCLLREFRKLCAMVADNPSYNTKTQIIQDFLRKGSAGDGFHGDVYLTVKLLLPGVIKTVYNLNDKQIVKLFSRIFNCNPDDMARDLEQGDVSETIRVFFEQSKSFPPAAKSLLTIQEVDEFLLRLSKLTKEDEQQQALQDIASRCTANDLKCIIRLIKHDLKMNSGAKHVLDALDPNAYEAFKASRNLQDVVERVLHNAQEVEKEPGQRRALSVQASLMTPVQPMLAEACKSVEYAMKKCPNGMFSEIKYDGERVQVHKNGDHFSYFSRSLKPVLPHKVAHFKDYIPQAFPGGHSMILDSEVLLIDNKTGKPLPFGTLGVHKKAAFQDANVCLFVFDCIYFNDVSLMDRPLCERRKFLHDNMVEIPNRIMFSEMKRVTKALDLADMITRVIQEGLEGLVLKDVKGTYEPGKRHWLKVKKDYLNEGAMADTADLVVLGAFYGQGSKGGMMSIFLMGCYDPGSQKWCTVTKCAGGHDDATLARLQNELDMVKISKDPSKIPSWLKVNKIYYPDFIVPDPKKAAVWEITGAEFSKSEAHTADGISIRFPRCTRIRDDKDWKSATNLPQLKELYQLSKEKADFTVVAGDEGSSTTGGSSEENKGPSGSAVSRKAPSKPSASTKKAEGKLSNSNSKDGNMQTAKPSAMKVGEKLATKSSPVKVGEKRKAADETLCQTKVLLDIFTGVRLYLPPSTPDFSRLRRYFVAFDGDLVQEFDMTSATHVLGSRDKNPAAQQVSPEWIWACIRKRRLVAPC
Nature of the data set: single-molecule (SMADNE, optical tweezers). To be noted: nicks with 3'OH and 5'P; 20 mM HEPES pH 7.5, 150 mM NaCl, 1 mM DTT, 5% glycerol, 0.5 mg/ml BSA, 1 mM trolox, 25 °C; nuclear extract diluted 1:10; 10 pN (λ DNA) or 4-5 pN (NCP).

The target of data set [14] is XRCC1-YFP (UniProt P18887). Briefly: single-molecule (SMADNE, optical tweezers). Conditions: nicks with 3'OH and 5'P; 20 mM HEPES pH 7.5, 150 mM NaCl, 1 mM DTT, 5% glycerol, 0.5 mg/ml BSA, 1 mM trolox, 25 °C; nuclear extract diluted 1:10; 10 pN (λ DNA) or 4-5 pN (NCP).
Sequence of XRCC1-YFP (P18887 whole entry): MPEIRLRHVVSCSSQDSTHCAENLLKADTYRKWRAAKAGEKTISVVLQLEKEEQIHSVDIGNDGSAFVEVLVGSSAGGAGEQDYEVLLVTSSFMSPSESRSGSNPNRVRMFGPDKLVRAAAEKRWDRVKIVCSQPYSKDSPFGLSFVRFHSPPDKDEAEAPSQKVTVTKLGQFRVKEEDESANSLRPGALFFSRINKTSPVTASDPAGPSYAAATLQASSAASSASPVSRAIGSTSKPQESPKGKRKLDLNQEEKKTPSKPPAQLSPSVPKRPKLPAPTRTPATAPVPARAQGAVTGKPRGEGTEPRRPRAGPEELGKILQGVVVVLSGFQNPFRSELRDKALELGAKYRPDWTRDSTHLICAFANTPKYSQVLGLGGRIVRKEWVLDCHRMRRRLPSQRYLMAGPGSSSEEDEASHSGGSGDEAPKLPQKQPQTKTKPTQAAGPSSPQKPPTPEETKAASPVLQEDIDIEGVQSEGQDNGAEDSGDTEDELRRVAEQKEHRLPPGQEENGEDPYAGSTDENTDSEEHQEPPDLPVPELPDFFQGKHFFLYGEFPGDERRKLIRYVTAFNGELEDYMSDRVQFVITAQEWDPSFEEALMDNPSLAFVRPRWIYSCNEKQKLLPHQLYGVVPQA
Where [15] appears, read: 5'-phosphates removed (5'OH at nicks).

Sequence of C-terminal YFP tagged XRCC1 (X-ray cross complementing protein 1) (P18887 whole entry): as above

As to “C-terminal YFP tagged XRCC1 (X-ray cross complementing protein 1) (from UniProt P18887 1-633) (natural protein)”, the percent of binding events colocalized worked out at 16.3% in [1], 17.1% in data set [2], 7.6% in [3] and 9.7% in data set [4]. The substance further showed an average lifetime of both proteins together on the DNA in data set [2] of 0.7 s. Besides, in [5], the Kd is 0.6 nM.

As for “CAACTGAGACCATGTACCCAGTTCGAATCGGATGTATATATCTGACACGTGCCTGGAGACTAGGGAGTAATCCCCTTGGCGGTTAAAACGCGGGGGACAGCGCGTACGTGCGTTTAAGCGGTGCTAGAGCTGTCTACGACCAATTGAGCGGCCTCGGCACCGGGATTCTCGATAACTCAGCAATAGTGGGTCTCA / ACCATGAGACCCACTATTGCTGAGTTATCGAGAATCCCGGTGCCGAGGCCGCTCAATTGGTCGTAGACAGCTCTAGCACCGCTTAAACGCACGTACGCGCTGTCCCCCGCGTTTTAACCGCCAAGGGGATTACTCCCTAGTCTCCAGGCACGTGTCAGATATATACATCCGATTCGAACTGGGTACATGGTCTCA [undamaged 601 NCP]”, the Kd turned out to be 1.1 nM in data set [6] (5'-phosphate on both strands), 0.03 nM in data set [7] (5'-phosphate on both strands) and 0.6 nM in data set [8] (5'-phosphate on both strands).

With “CIP-treated nicked λ DNA, non-ligatable nicks”, the Kd in [7] (setting [15]) worked out at 1.64 nM; in [8] (setting [15]) it was 17 nM.

Regarding “N-terminal tagged Halo635 LIG3α (DNA Ligase 3α, nuclear, wild type) (enzyme)”, the lifetime (Tau) in data set [9] turned out to be 12.2 s; in data set [10], 10.2 s; in data set [11], 17.3 s; in data set [5] it was 23.7 s. Moreover, the Kd in data set [5] is 0.03 nM. Moreover, the lifetime in [5] is 23.6 s.

As for “nicked λ DNA (Nt.BspQI), ligatable nicks”, the Kd in [6] (nicks with 3'OH and 5'P) was determined as 3.2 nM; in data set [7] (nicks with 3'OH and 5'P), 0.1 nM; in [8] (nicks with 3'OH and 5'P) it was 1.5 nM; in [12], 0.4 nM; in data set [13] it was 0.09 nM; in data set [14] it was 4 nM.

In data set [7] (non-ligatable nick), single non-ligatable nick, no NCP came in with a Kd of 2.5 nM.

Values taken from article PMC11952658.
